# Data: the supplement of paper PMC9170038
# Test system: MS2 coat protein
# Experiment: apparent KD of MS2 coat protein; designed switch direction (-1 OFF switch, 1 ON switch): -1; higher = weaker reporter binding
# Method in brief: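 The buffer was Tris-HCl pH 7.5 with KCl, MgCl2, BSA, DTT, tRNA and Tween-20. In it, SNAP-549-labelled MS2 coat protein was titrated in doubling steps from 0.7 or 1.5 nM to 3 µM over chip-bound RNA switches transcribed by stalled E. coli RNA polymerase on Illumina chips. Apparent KD is the per-design median over clusters of curve fits to normalised fluorescence.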
# [1] = Eterna round: R95, input ligand: microRNA oligo, concentration not stated
# [2] = input ligand: microRNA oligo, concentration not stated
# [3] = Eterna round: R95, input ligand: FMN 200 uM
# [4] = Eterna round: R95, input ligand: none
Sequence,apparent KD of MS2 coat protein [1] [nM],apparent KD of MS2 coat protein (input ligand: FMN 200 uM) [nM],apparent KD of MS2 coat protein [2] [nM],apparent KD of MS2 coat protein (input ligand: none) [nM],apparent KD of MS2 coat protein [3] [nM],apparent KD of MS2 coat protein [4] [nM]
CUUGUUUAUGUGAGGAUAUACUGUUAGUAUAGUUUGUAGAAGGUACAUGAGGAUCACCCAUGUUUAUUACUCUU [JR_BME4_Sub046] (puzzle: Brourd's mod of Exclusion 4),11.9,–,–,–,–,–
"UCGCUCCGUGUAGGAUAUCGCUGUAUGAUGCGGCGAGAAGGACAUGAGGAUCACCCAUGUAUGUUAUUAUCACGCGUGGCGCAA [Design 64] (Eterna round: R96, puzzle: Exclusion NG 1)",–,21.8,11.6,17.5,–,–
AGAUUAUGAGGAUAUCGAGUUUAGUACAUGAGGAUCACCCAUGUUAUCCAGGUCUCGUUUCGAGAAGGCAUGAUUC [LRO-Ex5-09] (puzzle: Exclusion 5),35.3,–,–,–,–,–
GAAUAGGUAGGAUAUACGAAAAAAAAGGGUAGAAAAAAAACACAUGAGGAUCACCCAUGUAGAAGGACCAAAAG [salish99_ex2_r3_089] (puzzle: Exclusion 2),31.6,–,–,–,68.6,29.6
"AGCUAGUGAGGAUAUACGAACAUGUCAAAAGACUGUAAGGGACAUGAGGAUCACCCAUGUAGAAGGCACUAGCA [Diamond 55] (Eterna round: R96, puzzle: Exclusion 2)",–,–,32.4,–,–,–
UUUUAGAGAGGAUAUAUAUUGUGAAACAUGAGGAUCACCCAUGUAAUAAUAUGGAUGUAAAUAGAAGGCUCAUUUA [JL-ex5-3.03] (puzzle: Exclusion 5),44.6,–,–,–,37.5,42.7
"UUCAUGUAAGGAUAUGUAGUGAUGACGAAAUUUGUCGUUAAACAGAAGGUACAUGAGGAUCACCCAUGUAGCUA [EX4 B.9] (Eterna round: R97, puzzle: Exclusion 4)",–,133,–,27.4,–,–
GUGAAGUAAGGAUAUACAUGAGGAUCACCCAUGUGGAGGAAGGUGAUGGGAGUAGGUAGUAGAAGGUACGAGGA [JR_Exclu3_Sub064] (puzzle: Exclusion 3),159,–,–,–,115,201
"CUAAAUCAUGUAGGAUAUGCAUAGCGAAGCUAUGCAGAAGGACAUGAGGAUCACCCAUGUUCUUCCGUCUGAGUACAGACGGAA [Mat - Exclusion NG 1 - Mod of JL - D31] (Eterna round: R96, puzzle: Exclusion NG 1)",–,288,30.6,34.1,–,–
"CUCCAGACAGGAUAUACGAGGCUGUGUUCCCAUUAUAGGACACAUGAGGAUCACCCAUGUAGAAGGGUCAAUGG [Eternabot (L1) Solution 28] (Eterna round: R97, puzzle: Exclusion 2)",–,286,–,742,–,–
"ACUUUUUGAGGAUAUACAUUGAUUAACAUGAGGAUCACCCAUGUACAAACAUGUAUUUGUGUAGAAGGCAGAAGAA [JR_Ex5_Sub068] (Eterna round: R97, puzzle: Exclusion 5)",–,14.9,–,13.2,–,–
"GCCCGGGCAGGAUAUACAAGCUUGAGCUGAAAAGUUCGAGUACAUGAGGAUCACCCAUGUAGAAGGGCCCGGGC [-37.5, -35.6 kcal, A 28% 1 bis] (Eterna round: R97, puzzle: Exclusion 2)",–,29.4,–,18.7,–,–
"CCUAGACAUGAGGAUCACCCAUGUGAGGAUAUGAUGCGAUCGUCGAAAGACGAUAGCAUCAGAAGGCACAUAUG [Fiskers Ex 1 - 5] (Eterna round: R96, puzzle: Exclusion 1)",–,130,34.2,37.6,–,–
"AGAUGUAGAUACCGAUCCUACAUGAGGAUCACCCAUGUAGCUAGACGUGCACGCGUAGCUCGUCAGACUACCAGAAG [salish99_TOv1_r3_085] (puzzle: Sensor v3, turn-off variant 1)",147,–,–,–,292,223
"AAUAAUCAUGUAGGAUAUGCGUGGCAAAGCUAUGCAGAAGGACAUGAGGAUCACCCAUGUUCUAGCGUCUGAGUACAGAUGCUA [Mat - Exclusion NG 1 - Mod of JL - D81] (Eterna round: R96, puzzle: Exclusion NG 1)",–,399,32.1,47.4,–,–
"GAAUGAGAGCAGGAUAUCUUAUAAAUGUAUGAAAGAGAAGGGCUCACAUGAGGAUCACCCAUGUGGUCCUAGAU [jl-ex6-4.76 jandersonlee mod] (Eterna round: R97, puzzle: Exclusion 6)",–,645,–,35.2,–,–
"CAUGAUUGGGAAGGAUAUUGACCUAGUUAGCGCCGAGAAGGUCCCUUUCACAUGAGGAUCACCCAUGUGAGUCUGGUGUUCGAG [Ex NG1 #96] (Eterna round: R96, puzzle: Exclusion NG 1)",–,37.7,26.8,37.6,–,–
"AGCAGACGAGGAUAUAGAUUUAGAUACAUGAGGAUCACCCAUGUAUAUAUGUAUUUAGAUUUAGAAGGCGUCUGCU [E5/15-A1] (Eterna round: R97, puzzle: Exclusion 5)",–,222,–,219,–,–
"GCAGCGUAGUCUAAAUAAGACAUACAUGAGGAUCACCCAUGUCAGGAUAUGGUCUGGAUUACAGGCCAGAAGGGACAAAGCUGC [Eli exng3 - 002] (Eterna round: R96, puzzle: Exclusion NG 3)",–,21.4,16.5,17.7,–,–
"GGUGAAGCAGGAUAUGUAUCGAUAUACAUGAGGAUCACCCAUGUCAUGUUUGAAUCGCAUAUAGAAGGGCUUCACC [Exclusion 5 (FMN-MS2 slide)] (Eterna round: R97, puzzle: Exclusion 5)",–,58.1,–,20.8,–,–
"UUAUUGUAUGUAGGAUAUGCAUAUUAUUAUUAUGCAGAAGGACAUGAGGAUCACCCAUGUAUAUUAUUAUUAUAUAUUAUAUAU [Title] (Eterna round: R96, puzzle: Exclusion NG 1)",–,–,24.6,–,–,–
"GGAUAUAAGGAAGGAUAUGAGCGCAACUGACGAUCAGAAGGUCCACAUGAGGAUCACCCAUGUGAUCUAUCAAUAUUAUACAUG [Prohibition 94 - Jieux - Exclusion NG 1] (Eterna round: R96, puzzle: Exclusion NG 1)",–,264,52.9,115,–,–
"UCACGGGAUUGAGGAUAUAUAUUAAUUUUUACAAUAGAAGGCAAAUUGUUAGAUUAUUCACUAUACAUGAGGAUCACCCAUGUU [JR_ExcBG1_Sub078] (Eterna round: R96, puzzle: Exclusion NG 1)",–,–,17.6,–,–,–
"AUCAUAUAACAAGCUUUUUACAUGAGGAUCACCCAUGUGGUUUUUAGUCUUAUCCCGGGCCCGAUAUCGGGCCCGGG [-33.4, -54.7, A 22%] (Eterna round: R97, puzzle: Sensor, turn-off variant 1)",–,22.8,–,24.2,–,–
"GGUCAACGUGUGAGGAUAUGUCAACCCUGUGGAAAGCAGAAGGCACAUGAGGAUCACCCAUGUAAUAAGAAAAC [Soasois] (Eterna round: R97, puzzle: Brourd's mod of Exclusion 4)",–,29.9,–,262,–,–
